Reference: US20220252584, “METHODS AND DEVICES FOR […] A PATHOGEN AND ITS MOLECULAR COMPONENTS” (THE REGENTS OF THE UNIVERSITY OF CALIFORNIA, published 2022)

Legend:
[1] = biological target: SARS-CoV-2 nucleocapsid (N) protein (SARS-CoV-2, UniProt P0DTC9 P0DTC9:1-419)
SARS-CoV N protein = SARS-CoV N protein (SARS-CoV, UniProt P59595 P59595:1-422)
SARS-CoV-2 spike RBD = SARS-CoV-2 spike RBD (SARS-CoV-2, UniProt P0DTC2 P0DTC2:319-541)
SARS-CoV spike RBD = SARS-CoV spike RBD (SARS-CoV, UniProt P59594 P59594:306-527)

B1: Aptamer-N (Aptamer Np-48) (ssDNA)
DNA: GCTGGATGTCGCTTACGACAATATTCCTTAGGGGCACCGCTACATTGACACATCCAGC
modifications: 3' amino linker, coupled to PBASE-graphene
Q: Does B1 bind [1]?
A: Result: binds

B2: Aptamer-N (Aptamer Np-48) (ssDNA)
DNA: B1 DNA
Q: Does B2 bind (SARS-CoV N protein)?
A: Result: binds

B3: Aptamer-S (Aptamer 1C) (ssDNA)
DNA: CAGCACCGACCTTGTGCTTTGGGAGTGCTGGTCCAAGGGCGTTAATGGACA
Q: What does the source list for B3?
A: binding result (SARS-CoV-2 spike RBD): binds; binding result (SARS-CoV spike RBD): binds
